Laboratory results: patent US12503518B2, “Heparanase-neutralizing A54 monoclonal antibody” (TECHNION RESEARCH & DEVELOPMENT FOUNDATION LIMITED, priority 2020, dated 2025)

Key:
EMT-6 luciferase cells = assay: EMT-6 breast carcinoma tumor growth in Balb/c mice; assay type: in vivo; conditions: 360 μg/mouse, 2 times/week; vs PBS
Description: In subsequent studies, the effect of mAb A54 on breast carcinoma tumor growth was investigated. Balb/c mice (n=3) were inoculated in the mammary fad pad with EMT-6 luciferase cells (0.5×10^6), and mice were treated with A54 mAb (360 μg/mouse, 2 times/week) or PBS as control. Tumor growth was evaluated by IVIS imaging (FIGS. 9A and 9B) and quantification of luciferase signals is shown graphically (FIG. 9C). At the end of the experiment, tumors were resected and weighted (FIG. 9D).

[1] = tested on: 4T1 breast carcinoma cells; assay: 4T1 breast carcinoma spontaneous metastasis, orthotopic syngeneic Balb/c model; assay type: in vivo, mouse
Description: 4T1 mouse breast carcinoma (spontaneous metastasis). Luciferase labeled 4T1 breast carcinoma cells (1×10^5/Balb/c mouse) are injected directly into the third mammary fat pad and treatment of mice (PBS control vs. mAb A54 500 μg/mouse, 3 times/week began 3 days after 4T1 cell inoculation. Mice were randomized into two groups of 6 mice, 4 days postinoculation (Day 0). On day 15 of the study the mammary fat pad including the primary tumor was excised on all mice while under 2% Isoflurane anaesthetic. Mice were treated with mAb A54 as described above and IVIS bioluminescent imaging is performed 12 and 18 days after mastectomy. At termination, mice are sacrificed and the number of overt macrometastases on the surface of the lungs was enumerated manually (Hammond et al., PLoS One 2012; 7(12):e52175).
IVIS imaging. Bioluminescent imaging of luciferase-expressing tumors is performed with a highly sensitive, cooled charge coupled device (CCD) camera mounted in a light-tight specimen box (IVIS; Xenogen Corp., Waltham, MA). Imaging is performed in real time, is non-invasive and provides quantitative data. Briefly, mice are injected intraperitoneally with D-luciferin substrate at 150 mg/kg, anesthetized and placed onto a warmed stage inside the light-tight camera box, with continuous exposure to isoflurane (EZAnesthesia, Palmer, PA). Light emitted from the bioluminescent cells is detected by the IVIS camera system with images quantified for tumor burden using a log-scale color range set at 5×10^4 to 1×10^7 and measurement of total photon counts per second (PPS) using Living Image software (Xenogen).
In subsequent studies, the effect of mAb A54 on cancer metastasis, the hallmark of heparanase activity, was investigated. A syngeneic breast carcinoma model was applied, which resembles the scenario in humans. Briefly, luciferase labeled 4T1 breast carcinoma cells (0.5×10^5) were orthotopically injected into the third mammary fat pad of Balb/c mice. Treatment of the mice (PBS control vs. mAb A54; 500 μg/mouse, 3 times/week) began 3 days after 4T1 cell inoculation. […] On day 15 of the study the mammary fat pad including the primary tumor was excised from all mice (under 2% Isoflurane anesthetic) and weighed. […] Mice were further treated with mAb A54 as described above and IVIS bioluminescent imaging was performed on day 35 (e.g., […]).

[2] = tested on: Luc-CAG human myeloma cells; assay: CAG myeloma tumor growth in NOD/SCID mice, IVIS imaging; assay type: in vivo; conditions: 500 μg/mouse, 3 times/week from day 3; evaluated 3 weeks later; vs PBS; P=0.02
Description: CAG myeloma. Luciferase-labeled CAG human myeloma cells (5×10^6) are injected into the tail vein of NOD/SCID mice. Three days after cell inoculation, mice are randomly assigned to 2 cohorts (5-10 mice each) receiving (a) vehicle (PBS); and (b) A54 mAb (500 μg/mouse, 3 times/week). Tumor development is inspected (once a week) by IVIS imaging following administration of luciferin (see below). At termination, mice are sacrificed the backbones are excised, fixed in formalin and following de-calcification with 10% EDTA solution are embedded in paraffin and subjected to histological and immunohistochemical analyses.
IVIS imaging. […] Imaging is performed in real time, is non-invasive and provides quantitative data. […] Light emitted from the bioluminescent cells is detected by the IVIS camera system with images quantified for tumor burden using a log-scale color range set at 5×10^4 to 1×10^7 and measurement of total photon counts per second (PPS) using Living Image software (Xenogen).
The ability of mAb A54 to attenuate myeloma tumor development over time was examined. […] Tumor growth was evaluated 3 weeks later by IVIS imaging (FIGS. 5A and 5B). Quantification of luciferase signals is also shown graphically (FIG. 5C). […]

B1: mAb A54: heparanase-neutralizing murine monoclonal antibody, IgG1-Kappa; VH SEQ ID NO: 7, VL SEQ ID NO: 8; binds HBD-II of heparanase (antibody, listed as Mus musculus, V domains shown)
VH: QVQLQQSGAELAKPGASVRMSCKASGYTFTNYWMHWVKQRPGQGLEWIGYINPTTGYTEYNQKFKDKATLTADKSSSTAYMQLSSLTSEDSAVYYCARGGAGYDYDEDYAMDYWGQGTSVTVSS
VL: DIVLTQSPASLAVSLGQRATISCRASESVEYFGTSYMNWYQQKPGQPPKLLIYLASILESGIPARFSGSGSGTDFTLNIHPVEEEDAATYYCQQSNEDPYTFGGGTKLEIK
EMT-6 luciferase cells
  breast carcinoma tumor growth (IVIS signal, tumor weight): attenuates the growth of breast carcinoma
[1]; 500 μg/mouse, 3 times/week, IVIS on day 12, vs PBS
  luciferase signal generated by the primary tumors: no differences in the luciferase signal
[1]; 500 μg/mouse, 3 times/week, IVIS on day 35, two out of 5 untreated mice developed lung metastases
  lung metastases (IVIS signal after mastectomy): hardly-detected signal
[1]; 500 μg/mouse, 3 times/week, excised day 15, vs untreated
  weight of excised primary tumors: no difference in weights
[1]; repeated experiment with similar results
  inhibition of lung colonization: almost complete inhibition of lung colonization
[2]
  myeloma growth rate (IVIS luciferase signal): marked reduction in the myeloma growth rate
